Experimental data published in PMC6463701.

These substances were tested against fluorophore-labeled ubiquitin G76C (BODIPY TMR C5-maleimide) (assay: fluorescence polarisation; 50 nM BODIPY TMR-labelled ubiquitin G76C, E6AP construct titrated (C-lobe 0-500 μM); room temperature; 20 mM HEPES pH 7.2, 200 mM NaCl, 1 mM TCEP, 0.01% Triton X-100; single-site binding model; apparent KD). Conditions: not given.

E6AP C-lobe (residues 741-852), sequence (Q05086 764-875): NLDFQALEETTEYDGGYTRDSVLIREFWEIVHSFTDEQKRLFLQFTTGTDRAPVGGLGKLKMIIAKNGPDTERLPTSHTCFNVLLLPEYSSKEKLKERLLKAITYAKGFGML
E6AP N-lobe (isolated), sequence (Q05086 518-875): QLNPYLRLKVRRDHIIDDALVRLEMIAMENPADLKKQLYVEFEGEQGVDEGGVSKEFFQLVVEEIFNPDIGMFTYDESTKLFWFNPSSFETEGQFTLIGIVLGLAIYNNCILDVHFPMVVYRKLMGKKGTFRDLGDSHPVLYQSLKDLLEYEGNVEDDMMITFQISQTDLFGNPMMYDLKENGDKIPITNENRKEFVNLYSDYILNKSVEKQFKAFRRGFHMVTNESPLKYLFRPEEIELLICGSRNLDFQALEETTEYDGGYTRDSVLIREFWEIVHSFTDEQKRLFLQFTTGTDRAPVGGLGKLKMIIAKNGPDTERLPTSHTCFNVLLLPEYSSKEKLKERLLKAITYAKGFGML
E6AP HECT domain (residues 495-852), wild type, sequence (Q05086 518-875): as above

| Kd | Substance |
| --- | --- |
| 400 µM | E6AP C-lobe (residues 741-852) (from UniProt Q05086-2 741-852) (domain or fragment) |
| 83 µM | E6AP HECT domain (residues 495-852), wild type (from UniProt Q05086-2 495-852) (domain or fragment) |
| 120 µM | E6AP HECT domain F665D (from UniProt Q05086-2 495-852) (domain or fragment) |
| 110 µM | E6AP HECT domain I564D/F583D (from UniProt Q05086-2 495-852) (domain or fragment) |
| 70 µM | E6AP N-lobe (isolated) (from UniProt Q05086-2 495-852) (domain or fragment) |

What follows are substances tested against Cys820 (UniProt position 843, PTSHTCFNVLL) (assay: chemical modification (stopped-flow kinetics, UV-vis)). Conditions: 10 °C; 100 mM NaCl; 20 mM sodium acetate, 20 mM sodium phosphate, 20 mM Tris or 20 mM CAPSO (depending on pH); 1 mM EDTA; isolated C-lobe, free (no ubiquitin), reduced thiol, folded.

| Substance | pKa |
| --- | --- |
| E6AP (UBE3A) HECT domain C-lobe, Delta4 variant (Homo sapiens; del849-852) | 8.7 ± 0.1 |
| E6AP (UBE3A) HECT domain C-lobe, wild type (Homo sapiens) | 8.7 ± 0.1 |
